What all share (assay): In vitro cytotoxicity on DLBCL cell lines panel (CellTiter Glo)
Common to all, as to format: cell-based
On the technique in general: ATP-based viability assays read luminescence as a measure of living cells.

Experiment [1] deals with DOHH-2 cells. Conditions: DOHH-2 cell line, 72 hours of incubation, relative IC50. As to the method: (§1) After 72 hours of incubation, plates were inspected under an inverted microscope to ensure growth of the controls and sterile conditions. Then, 50 μL CellTiter Glo (Promega, G7572) were added prior to luminescence reading as per the manufacturer's instructions. Relative IC50 were calculated using GraphPad Prism.

The subject of experiment [2] is WSU-DLCL2 cells. The following applies: WSU-DLCL2 cell line, 72 hours of incubation, relative IC50. As to the method:
as §1

Experiment [3] has as its system Pfeiffer cells. The following applies: Pfeiffer cell line, 72 hours of incubation, relative IC50. As to the method:
as §1

Experiment [4] deals with OCI-LY7 cells. Conditions: OCI-LY7 cell line, 72 hours of incubation, relative IC50. As to the method: as §1
Experiment [5] deals with HBL-1 cells. The following applies: HBL-1 cell line, 72 hours of incubation, relative IC50. As to the method:
as §1

Experiment [6] has as its system WSU-NHL cells. Conditions: WSU-NHL cell line, 72 hours of incubation, relative IC50. As to the method:
as §1

In experiment [7] the test system is SU-DHL-2 cells. The following applies: SU-DHL-2 cell line, 72 hours of incubation, relative IC50. As to the method:
as §1

In experiment [8] the test system is SU-DHL-8 cells. Conditions: SU-DHL-8 cell line, 72 hours of incubation, relative IC50. As to the method: as §1
Experiment [9] concerns U-2932 cells. Conditions: U-2932 cell line, 72 hours of incubation, relative IC50. As to the method:
as §1

In experiment [10] the test system is OCI-LY19 cells. Conditions: OCI-LY19 cell line, 72 hours of incubation, relative IC50. As to the method:
as §1

The subject of experiment [11] is SU-DHL-6 cells. Conditions: SU-DHL-6 cell line, 72 hours of incubation, relative IC50. As to the method: as §1
Experiment [12] concerns SU-DHL-4 cells. Conditions: SU-DHL-4 cell line, 72 hours of incubation, relative IC50. As to the method: as §1
Experiment [13] has as its system KARPAS-422 cells. Conditions: KARPAS-422 cell line, 72 hours of incubation, relative IC50. As to the method:
as §1

For experiment [14], the system named is Toledo cells. The following applies: Toledo cell line, 72 hours of incubation, relative IC50. As to the method: as §1
The subject of experiment [15] is A3/KAW cells. Conditions: A3/KAW cell line, 72 hours of incubation, relative IC50. As to the method: as §1
The test system of experiment [16] is SU-DHL-5 cells. Conditions: SU-DHL-5 cell line, 72 hours of incubation, relative IC50. As to the method: as §1
Experiment [17] concerns OCI-LY3 cells. The following applies: OCI-LY3 cell line, 72 hours of incubation, relative IC50. As to the method: as §1

B1: Debio 1562: Comparative example: naratuximab reacted with crosslinking reagent SMCC and the maytansinoid DM1; DAR 3.5 (conjugate, chains of the INN, looked up)
VH: QVQVQESGPGLVAPSQTLSITCTVSGFSLTTSGVSWVRQPPGKGLEWLGVIWGDGSTNYHPSLKSRLSIKKDHSKSQVFLKLNSLTAADTATYYCAKGGYSLAHWGQGTLVTVSS
VL: DIQMTQSPSSLSVSVGERVTITCRASENIRSNLAWYQQKPGKSPKLLVNVATNLADGVPSRFSGSGSGTDYSLKINSLQPEDFGTYYCQHYWGTTWTFGQGTKLEIK
modifications: SMCC-DM1, DAR 3.5
As to B1, the IC50 was 0.949 nM in experiment [1]; 9.59 nM in experiment [2]; 73.5 nM in experiment [3]; 79.3 nM in experiment [4]; 0.217 nM in experiment [5]; 0.19 nM in experiment [6]. For the same molecule, the half-maximal inhibitory concentration (IC50) in experiment [7] was determined as 7.78 nM; in experiment [8], 21.5 nM; in [9] it was 3.57 nM; in experiment [10], 45.5 nM; in [11] it was 1.74 nM; in experiment [12], 0.983 nM. For the same molecule, the IC50 came to 20.5 nM in experiment [13]; 90 nM in experiment [14]; 33 nM in experiment [15]; 0.901 nM in experiment [16]; 0.352 nM in experiment [17].

As usually defined, the IC50 is the concentration at which inhibition is half-maximal.

The values above are taken from patent US20250249113A1, “LIGAND-DRUG-CONJUGATES WITH IMPROVED PHARMACOKINETIC AND DRUG RELEASE PROPERTIES” (Debiopharm Research & Manufacturing S.A., priority 2022, published 2025).
